Measurements reported in FireProtDB (doi:10.1021/bi972994k).

Settings: Saccharolobus solfataricus (strain ATCC 35092 / DSM 1617 / JCM 11322 / P2), Thermal, DSC, glycine-HCl 10 mM, NaCl 100 mM, reversible: yes, whole UniProt chain shown

B1: DNA-binding protein 7d wild type, P39476 (protein)
chain: MATVKFKYKGEEKEVDISKIKKVWRVGKMISFTYDEGGGKTGRGAVSEKDAPKELLQMLEKQKK
With B1 the Tm (pH 2.3) was 64 °C, the “heat capacity change of unfolding” value (pH 2.3) was 0.48 kcal/mol/K and the “unfolding enthalpy (calorimetric)” value (pH 2.3) was 40.6 kcal/mol. For the same protein, the Tm (pH 2.5) was 65.5 °C, the “heat capacity change of unfolding” value (pH 2.5) was 0.57 kcal/mol/K and the “unfolding enthalpy (calorimetric)” value (pH 2.5) was 43 kcal/mol. For the same protein, the Tm (pH 2.7) was 71.1 °C, the “heat capacity change of unfolding” value (pH 2.7) was 0.57 kcal/mol/K and the “unfolding enthalpy (calorimetric)” value (pH 2.7) was 46.6 kcal/mol. For the same protein, the Tm (pH 2.8) was 74 °C, the “heat capacity change of unfolding” value (pH 2.8) was 0.45 kcal/mol/K and the “unfolding enthalpy (calorimetric)” value (pH 2.8) was 49 kcal/mol. For the same protein, the Tm (pH 2.9) was 76.3 °C, the “heat capacity change of unfolding” value (pH 2.9) was 0.65 kcal/mol/K and the “unfolding enthalpy (calorimetric)” value (pH 2.9) was 50.2 kcal/mol. For the same protein, the Tm (pH 3) was 78.8 °C, the “heat capacity change of unfolding” value (pH 3) was 0.74 kcal/mol/K and the “unfolding enthalpy (calorimetric)” value (pH 3) was 51.4 kcal/mol. The Tm (pH 3.2) was 84.2 °C, the “heat capacity change of unfolding” value (pH 3.2) was 0.72 kcal/mol/K and the “unfolding enthalpy (calorimetric)” value (pH 3.2) was 55 kcal/mol. For the same protein, the Tm (pH 3.6) was 90.3 °C, the “heat capacity change of unfolding” value (pH 3.6) was 0.6 kcal/mol/K and the “unfolding enthalpy (calorimetric)” value (pH 3.6) was 58.6 kcal/mol. The Tm (pH 3.8) was 92.4 °C, the “heat capacity change of unfolding” value (pH 3.8) was 0.69 kcal/mol/K and the “unfolding enthalpy (calorimetric)” value (pH 3.8) was 59.8 kcal/mol. For the same protein, the Tm (pH 4) was 95.1 °C, the “heat capacity change of unfolding” value (pH 4) was 0.55 kcal/mol/K and the “unfolding enthalpy (calorimetric)” value (pH 4) was 63.3 kcal/mol.
